Measurements reported in patent publication US20140134176A1 (Pfizer, published 2014).

Assays:
human PDGF-BB [1] = biological target: T1, human PDGF-BB (human, UniProt P01127 82-190); assay: cell-based or functional assay
human PDGF-BB [2] = biological target: T1, human PDGF-BB; assay: SPR (Biacore 2000), antibody captured via anti-human IgG, PDGF injected
Protocol: (§1) Anti-human (A-D, I-K) or anti-mouse (E-H) IgG antibodies were immobilized in flow cells of CM5 sensor chips. 1 μg/mL of MOR8457-IKR-hIgG1-3m (A-D), MOR8457-mIgG1 (E-H) or MOR8457-GL-hIgG1-3m (I-K) was injected independently over the respective anti-human or anti-mouse surface for 10 seconds resulting in a stable anti-PDGF surface between 50-100 RU. Different concentration of PDGF proteins, 0.25, 0.5, and 1 nM, was then injected over the antibody surface for 2 minutes at a flow rate of 100 μl/min for binding. The complex was allowed to dissociate for 10 minutes. The surface was regenerated with a 30 second injection of 10 mM magnesium chloride leaving the surface ready for another round of anti-PDGF antibody capture and PDGF binding kinetics. Each of these three antibodies bound tightly to human (A, E, I), mouse (B, F, J) and rat (C, G, K) PDGF-BB. MOR8457-IKR-hIgG1-3m (D) and MOR8457-mIgG1 (H) bound to human PDGF-AB. Each sensorgram shown is one representative of three independent experiments.
(§2) In order to test the specificity and cross species reactivity, the binding affinities of three MOR8457 IgG variants, MOR8457-IKR-hIgG1-3m, MOR8457-mIgG1, and MOR8457-GL-hIgG1-3m, to different human PDGF ligands, including human PDGF-AA, -AB, -DD, as well as rat PDGF-BB (all obtained from R&D systems, Minneapolis, Minn.) and mouse PDGF-BB (Invitrogen, Carlsbad, Calif.) were tested. Briefly, anti-human or anti-mouse IgG (GE Healthcare) antibodies were immobilized in adjacent flow cells of a CM5 sensor chip between 8000-10,000 resonance units (RU) using amine coupling as directed by the manufacturer. Antibodies were diluted into PBS-NET (10 mM Phosphate pH 7.4, 287 mM NaCl, 2.7 mM KCl, 3.2 mM EDTA, 0.01% Tween 20) to 1 μg/mL and injected independently over the respective anti-human or anti-mouse surface for 10 seconds resulting in a stable anti-PDGF surface between 50-100 RU. PDGF proteins were diluted to 1 nM in PBS-NET and serially diluted two-fold to 0.25 nM. Each concentration of PDGF was then injected over the antibody surface for 2 minutes at a flow rate of 100 μl/min. The complex was allowed to dissociate for 10 minutes. The surface was regenerated with a 30 second injection of 10 mM magnesium chloride leaving the surface ready for another round of anti-PDGF antibody capture and PDGF binding kinetics.

mouse PDGF-BB [3] = biological target: T2, mouse PDGF-BB (mouse, UniProt P31240 82-190); assay: as above
T2 construct: also called muBB; Mu PDGF-BB
T2 sequence (P31240 82-190 limits assumed): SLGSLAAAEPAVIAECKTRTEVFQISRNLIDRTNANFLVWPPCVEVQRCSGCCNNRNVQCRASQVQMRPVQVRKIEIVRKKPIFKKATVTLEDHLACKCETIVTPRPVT
Protocol: as §1, §2

rat PDGF-BB [4] = biological target: T3, rat PDGF-BB (rat, UniProt Q05028 74-182); assay: as above
T3 construct: also called ratBB
T3 sequence (Q05028 74-182 limits assumed): as the sequence (P31240 82-190 limits assumed) above, with I83V, I102V counted along it
Protocol: as §1, §2

human PDGF-AB [5] = biological target: T4, human PDGF-AB (human, UniProt P04085 87-211, limits assumed); assay: SPR (Biacore)
T4 construct: Heterodimer of PDGF-A and PDGF-B, bought; also called huAB; Hu PDGF-AB
T4 sequence (chain, as listed by the source limits assumed, chain 2 of 2, other chains not shown): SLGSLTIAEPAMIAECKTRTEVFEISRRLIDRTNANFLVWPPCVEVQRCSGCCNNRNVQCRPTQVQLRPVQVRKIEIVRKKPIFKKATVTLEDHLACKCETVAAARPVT
Protocol: as §2, with “kinetics. […]” for “kinetics.”

human PDGF-AA = human PDGF-AA (human, UniProt P04085 87-211, limits assumed); assay: SPR (Biacore), antibody captured
Protocol: as §2, with “kinetics. Kinetic data were double referenced (Myszka et al., 1999, J. Mol. Recognit. 12 279) using scrubber2 software (Bio-Logic Software), then fit to a 1:1 binding model using Biacore evaluation software version 4.1. The results shown were an average of three independent binding studies.” for “kinetics.”

human PDGF-DD = human PDGF-DD (human, UniProt Q9GZP0 250-370, limits assumed); assay: SPR (Biacore), antibody captured
Sequence of human PDGF-DD (Q9GZP0 250-370 limits assumed): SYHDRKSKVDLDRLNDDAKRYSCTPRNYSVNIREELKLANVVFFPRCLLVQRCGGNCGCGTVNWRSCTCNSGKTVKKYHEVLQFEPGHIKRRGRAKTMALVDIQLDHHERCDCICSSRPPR
Protocol: as §2, with “kinetics. Kinetic data were double referenced (Myszka et al., 1999, J. Mol. Recognit. 12 279) using scrubber2 software (Bio-Logic Software), then fit to a 1:1 binding model using Biacore evaluation software version 4.1. The results shown were an average of three independent binding studies.” for “kinetics.”

human PDGF-AB [6] = biological target: T4, human PDGF-AB; assay: SPR (Biacore 2000), antibody captured via anti-human IgG, PDGF injected
Protocol: as §1, §2

human PDGF-BB [7] = biological target: T1, human PDGF-BB; assay: SPR (Biacore 3000), antibody captured via anti-human IgG, PDGF injected
Protocol: (§3) FIG. 20, comprising panels A through D, depicts Biacore sensorgrams showing the binding kinetics of MOR8457-16 to different PDGF isoforms. MOR8457-16 was captured onto CM5 chips using an anti-human IgG antibody. The binding kinetics of each PDGF isoform was assessed by flowing different concentrations of each PDGF isoform over the captured MOR8457-16 surface. The concentrations of Hu-PDGF-BB (A) and Mu-PDGF-BB (C) were 0.25, 0.5, and 1 nM, and the concentrations for Hu-PDGF-AB (B) and Rat-PDGF-BB (D) were 0.5 and 1 nM. Each sensorgram is one representative of two independent experiments. Kinetics data were double referenced and fit using Biacore evaluation software version 4.1.
(§4) The binding affinities of MOR8457-16 to different PDGF isoforms were determined as previously described (Example 6) using a Biacore 3000 (GE Healthcare, Piscataway N.J.). Briefly, an anti-human IgG (GE Healthcare) antibody was immobilized in flow cells of a CM5 sensor chip between 8,000-10,000 resonance units (RU) using amine coupling as directed by the manufacturer. Test antibodies were diluted into PBS-NET (10 mM Phosphate pH 7.4, 287 mM NaCl, 2.7 mM KCl, 3.2 mM EDTA, 0.01% Tween-20) to 0.5 ug/mL and injected over the anti-human antibody surface for 30 seconds resulting in a stable anti-PDGF surface between 82-122 RU. PDGF proteins were diluted to 1 nM in PBS-NET and serially diluted two-fold to 0.25 nM. Each concentration of PDGF was then injected over the antibody surface for 2 minutes at a flow rate of 100 ul/min. The complex was allowed to dissociate for 10 minutes. The surface was regenerated with a 30 second injection of 3M magnesium chloride leaving the surface ready for another round of anti-PDGF antibody capture and PDGF binding kinetics. Kinetic data was double referenced (D. G. Myszka et al., J. Mol. Recognit. 12:279, 1999) using Scrubber2 software (Bio-Logic Software), then fit to a 1:1 binding model using Biacore evaluation software version 4.1. Protein concentrations of all PDGF isoforms were corrected with active concentrations determined under the condition of limiting mass transport (Karlsson et al., METHODS: A companion to Methods in Enzymology 6:99-110, 1994). Results shown were averages of two independent binding studies.

mouse PDGF-BB [8] = biological target: T2, mouse PDGF-BB; assay: as above
Protocol: as §3, §4

rat PDGF-BB [9] = biological target: T3, rat PDGF-BB; assay: as above
Protocol: as §3, §4

human PDGF-AB [10] = biological target: T4, human PDGF-AB; assay: as above
Protocol: as §3, §4

T1 sequence (P01127 82-190 limits assumed): as the sequence (chain, as listed by the source limits assumed, chain 2 of 2, other chains not shown) above

Row | Binder | IC50, inhibition of PDGF-BB (2.5 ng/ml) stimulated mesangial cell proliferation (human PDGF-BB [1]) [nM] | Kd (human PDGF-BB [2]) [nM] | koff (human PDGF-BB [2]) [s⁻¹] | kon (human PDGF-BB [2]) [M⁻¹ s⁻¹] | Kd (mouse PDGF-BB [3]) [nM] | koff (mouse PDGF-BB [3]) [s⁻¹] | kon (mouse PDGF-BB [3]) [M⁻¹ s⁻¹] | Kd (rat PDGF-BB [4]) [nM] | koff (rat PDGF-BB [4]) [s⁻¹] | kon (rat PDGF-BB [4]) [M⁻¹ s⁻¹] | other results
1 | MOR8457-GL-hIgG1-3m (antibody, V domains shown, Germlined VH and VL, human IgG1-3m, wild type human lambda) VH: EVQLLESGGGLVQPGGSLRLSCAASGFTFSSYAMSWVRQAPGKGLEWVSYISDDGSLKYYADSVKGRFTISRDNSKNTLYLQMNSLRAEDTAVYYCAKHPYWYGGQLDLWGQGTLVTVSS VL: SYELTQPPSVSVSPGQTASITCSGDSLGSYFVHWYQQKPGQSPVLVIYDDSNRPSGIPERFSGSNSGNTATLTISGTQAMDEADYYCSAFTHNSDVFGGGTKLTVLG | 0.02 | 0.013 | 0.00019 | 1.5e+07 | 0.004 | 0.0002 | 5.3e+07 | 0.015 | 0.00024 | 1.7e+07 | –
2 | MOR8457-IKR-hIgG1-3m (antibody, also called MOR8457-IKR-IgG1-3m) heavy: not shown light: SYELTQPPSVSVAPGQTARISCSGDSLGSYFVHWYQQKPGQAPVLVIYDDSNRPSGIPERFSGSNSGNTATLTISGTQAEDEADYYCSAFTHNSDVFGGGTKLTIKRQPKAAPSVTLFPPSSEELQANKATLVCLISDFYPGAVTVAWKADSSPVKAGVETTTPSKQSNNKYAASSYLSLTPEQWKSHRSYSCQVTHEGSTVEKTVAPTECS | – | 0.028 | 0.000362 | 1.27e+07 | 0.01 | 0.000293 | 2.95e+07 | 0.025 | 0.000447 | 1.77e+07 | fold reduction in binding against PDGF-BB (human PDGF-AB [5]): ~3 fold; IC50, inhibition of PDGF-BB induced human mesangial cell proliferation (BrdU incorporation) (human PDGF-BB [1]): 0.0134 nM; binding result (human PDGF-AA): no binding (tested: 0.25-1 nM PDGF); binding result (human PDGF-DD): no binding (tested: 0.25-1 nM PDGF); Kd (human PDGF-AB [6]): 0.069 nM; koff (human PDGF-AB [6]): 0.00045 s⁻¹; kon (human PDGF-AB [6]): 6.5e+06 M⁻¹ s⁻¹
3 | MOR8457-16 (antibody, human IgG1, lambda, V domains shown, Engineered variant of MOR8457-GL: heavy E6Q, Q13K; light N53K (Kabat); human IgG1-3m; also called MOR8547-16) VH: EVQLLQSGGGLVKPGGSLRLSCAASGFTFSSYAMSWVRQAPGKGLEWVSYISDDGSLKYYADSVKGRFTISRDNSKNTLYLQMNSLRAEDTAVYYCARHPYWYGGQLDLWGQGTLVTVSS VL: SYELTQPPSVSVSPGQTASITCSGDSLGSYFVHWYQQKPGQSPVLVIYDDSKRPSGIPERFSGSNSGNTATLTISGTQAMDEADYYCSAFTHNSDVFGGGTKLTVLG | 0.014 | – | – | – | – | – | – | – | – | – | Kd (human PDGF-BB [7]): 0.00975 nM; koff (human PDGF-BB [7]): 0.000169 s⁻¹; kon (human PDGF-BB [7]): 1.73e+07 M⁻¹ s⁻¹; Kd (mouse PDGF-BB [8]): 0.00862 nM; koff (mouse PDGF-BB [8]): 0.00018 s⁻¹; kon (mouse PDGF-BB [8]): 2.16e+07 M⁻¹ s⁻¹; Kd (rat PDGF-BB [9]): 0.00888 nM; koff (rat PDGF-BB [9]): 0.000114 s⁻¹; kon (rat PDGF-BB [9]): 1.29e+07 M⁻¹ s⁻¹; Kd (human PDGF-AB [10]): ~0.00802 nM; koff (human PDGF-AB [10]): < 1e-05 s⁻¹; kon (human PDGF-AB [10]): 3.39e+06 M⁻¹ s⁻¹
